Holding throughout (test): cell-based or functional assay
The target of experiment [1] is human GLP-1 receptor (human, UniProt P43220).
In experiment [2] the target is human glucagon receptor (human, UniProt P47871).
Experiment [3] has as its target human GLP-1 receptor (human, UniProt P43220). The source holds these as a separate data set.
In experiment [4] the target is human glucagon receptor (human, UniProt P47871). The source holds these as a separate data set.

Starred links: 1 amine or outer side, 2 acyl side, 3 side chain; linkers in the order of their positions; H or OH if unused. Non-standard residues stand in square brackets, D forms with d. Groups on a side chain read outwards from the residue. No end group written: not given here. *: point of attachment. C20 diacid = O=C(O)CCCCCCCCCCCCCCCCCCC(=O)*; C18 diacid = O=C(O)CCCCCCCCCCCCCCCCC(=O)*; γGlu = O=C(O)[C@H](CCC(=O)[*:2])N[*:1]; αMeF = C[C@](N)(Cc1ccccc1)C(=O)O; AEEA = NCCOCCOCC(=O)O; Aib = CC(C)(N)C(=O)O

B1: Peptide 37 (peptide)
peptide: H[Aib]QGTFTSDVSK[αMeF]LDSK([AEEA-AEEA-γGlu-C18 diacid])RAEDFVQWLL[Aib]T-OH
modifications: N-terminus assumed
SMILES: CC(C)C[C@H](NC(=O)[C@H](Cc1c[nH]c2ccccc12)NC(=O)[C@H](CCC(N)=O)NC(=O)[C@@H](NC(=O)[C@H](Cc1ccccc1)NC(=O)[C@H](CC(=O)O)NC(=O)[C@H](CCC(=O)O)NC(=O)[C@H](C)NC(=O)[C@H](CCCNC(=N)N)NC(=O)[C@H](CCCCNC(=O)COCCOCCNC(=O)COCCOCCNC(=O)CC[C@H](NC(=O)CCCCCCCCCCCCCCCCC(=O)O)C(=O)O)NC(=O)[C@H](CO)NC(=O)[C@H](CC(=O)O)NC(=O)[C@H](CC(C)C)NC(=O)[C@](C)(Cc1ccccc1)NC(=O)[C@H](CCCCN)NC(=O)[C@H](CO)NC(=O)[C@@H](NC(=O)[C@H](CC(=O)O)NC(=O)[C@H](CO)NC(=O)[C@@H](NC(=O)[C@H](Cc1ccccc1)NC(=O)[C@@H](NC(=O)CNC(=O)[C@H](CCC(N)=O)NC(=O)C(C)(C)NC(=O)[C@@H](N)Cc1c[nH]cn1)[C@@H](C)O)[C@@H](C)O)C(C)C)C(C)C)C(=O)N[C@@H](CC(C)C)C(=O)NC(C)(C)C(=O)N[C@H](C(=O)O)[C@@H](C)O
Turning to B1, the results for the “cAMP production EC50” value in experiment [1] and in experiment [2] were 0.0686 nM and 2.75 nM, respectively.

B2: Peptide 38 (peptide)
peptide: H[Aib]QGTFTSDVSK[αMeF]LDSK([AEEA-AEEA-γGlu-C18 diacid])RAQDFVEWLL[Aib]T-OH
modifications: N-terminus assumed
SMILES: CC(C)C[C@H](NC(=O)[C@H](Cc1c[nH]c2ccccc12)NC(=O)[C@H](CCC(=O)O)NC(=O)[C@@H](NC(=O)[C@H](Cc1ccccc1)NC(=O)[C@H](CC(=O)O)NC(=O)[C@H](CCC(N)=O)NC(=O)[C@H](C)NC(=O)[C@H](CCCNC(=N)N)NC(=O)[C@H](CCCCNC(=O)COCCOCCNC(=O)COCCOCCNC(=O)CC[C@H](NC(=O)CCCCCCCCCCCCCCCCC(=O)O)C(=O)O)NC(=O)[C@H](CO)NC(=O)[C@H](CC(=O)O)NC(=O)[C@H](CC(C)C)NC(=O)[C@](C)(Cc1ccccc1)NC(=O)[C@H](CCCCN)NC(=O)[C@H](CO)NC(=O)[C@@H](NC(=O)[C@H](CC(=O)O)NC(=O)[C@H](CO)NC(=O)[C@@H](NC(=O)[C@H](Cc1ccccc1)NC(=O)[C@@H](NC(=O)CNC(=O)[C@H](CCC(N)=O)NC(=O)C(C)(C)NC(=O)[C@@H](N)Cc1c[nH]cn1)[C@@H](C)O)[C@@H](C)O)C(C)C)C(C)C)C(=O)N[C@@H](CC(C)C)C(=O)NC(C)(C)C(=O)N[C@H](C(=O)O)[C@@H](C)O
Turning to B2, the “cAMP production EC50” value is 0.0756 nM in experiment [1] and 0.441 nM in experiment [2].

B3: Peptide 140 (peptide)
peptide: H[Aib]QGTFTSDVSK[αMeF]LDTK([AEEA-AEEA-γGlu-C18 diacid])RAQDFVRWLLE[Aib]G-OH
modifications: N-terminus assumed
SMILES: CC(C)C[C@H](NC(=O)[C@H](Cc1c[nH]c2ccccc12)NC(=O)[C@H](CCCNC(=N)N)NC(=O)[C@@H](NC(=O)[C@H](Cc1ccccc1)NC(=O)[C@H](CC(=O)O)NC(=O)[C@H](CCC(N)=O)NC(=O)[C@H](C)NC(=O)[C@H](CCCNC(=N)N)NC(=O)[C@H](CCCCNC(=O)COCCOCCNC(=O)COCCOCCNC(=O)CC[C@H](NC(=O)CCCCCCCCCCCCCCCCC(=O)O)C(=O)O)NC(=O)[C@@H](NC(=O)[C@H](CC(=O)O)NC(=O)[C@H](CC(C)C)NC(=O)[C@](C)(Cc1ccccc1)NC(=O)[C@H](CCCCN)NC(=O)[C@H](CO)NC(=O)[C@@H](NC(=O)[C@H](CC(=O)O)NC(=O)[C@H](CO)NC(=O)[C@@H](NC(=O)[C@H](Cc1ccccc1)NC(=O)[C@@H](NC(=O)CNC(=O)[C@H](CCC(N)=O)NC(=O)C(C)(C)NC(=O)[C@@H](N)Cc1c[nH]cn1)[C@@H](C)O)[C@@H](C)O)C(C)C)[C@@H](C)O)C(C)C)C(=O)N[C@@H](CC(C)C)C(=O)N[C@@H](CCC(=O)O)C(=O)NC(C)(C)C(=O)NCC(=O)O
B3: in experiment [3], the “cAMP production, hGLP-1R EC50 (pM)” value is 22.7 pM.

B4: Peptide 4 (peptide)
peptide: HSQGS[αMeF]TSDVSK[αMeF]LDSK([AEEA-AEEA-γGlu-C18 diacid])AAQDFVQWIANT-NH2
modifications: N-terminus assumed
SMILES: CC[C@H](C)[C@H](NC(=O)[C@H](Cc1c[nH]c2ccccc12)NC(=O)[C@H](CCC(N)=O)NC(=O)[C@@H](NC(=O)[C@H](Cc1ccccc1)NC(=O)[C@H](CC(=O)O)NC(=O)[C@H](CCC(N)=O)NC(=O)[C@H](C)NC(=O)[C@H](C)NC(=O)[C@H](CCCCNC(=O)COCCOCCNC(=O)COCCOCCNC(=O)CC[C@H](NC(=O)CCCCCCCCCCCCCCCCC(=O)O)C(=O)O)NC(=O)[C@H](CO)NC(=O)[C@H](CC(=O)O)NC(=O)[C@H](CC(C)C)NC(=O)[C@](C)(Cc1ccccc1)NC(=O)[C@H](CCCCN)NC(=O)[C@H](CO)NC(=O)[C@@H](NC(=O)[C@H](CC(=O)O)NC(=O)[C@H](CO)NC(=O)[C@@H](NC(=O)[C@](C)(Cc1ccccc1)NC(=O)[C@H](CO)NC(=O)CNC(=O)[C@H](CCC(N)=O)NC(=O)[C@H](CO)NC(=O)[C@@H](N)Cc1c[nH]cn1)[C@@H](C)O)C(C)C)C(C)C)C(=O)N[C@@H](C)C(=O)N[C@@H](CC(N)=O)C(=O)N[C@H](C(N)=O)[C@@H](C)O
As to B4, the “cAMP production, hGLP-1R EC50 (pM)” value in experiment [3] was 240 pM. The “cAMP production, hGluc-R EC50 (pM)” value in experiment [4] turned out to be 1170 pM.

B5: Peptide 20 (peptide)
peptide: H[Aib]HGS[αMeF]TSDVSK[αMeF]LDSK([AEEA-AEEA-γGlu-γGlu-C18 diacid])AARD[αMeF]VE[Aib]IANT-NH2
modifications: N-terminus assumed
SMILES: CC[C@H](C)[C@H](NC(=O)C(C)(C)NC(=O)[C@H](CCC(=O)O)NC(=O)[C@@H](NC(=O)[C@](C)(Cc1ccccc1)NC(=O)[C@H](CC(=O)O)NC(=O)[C@H](CCCNC(=N)N)NC(=O)[C@H](C)NC(=O)[C@H](C)NC(=O)[C@H](CCCCNC(=O)COCCOCCNC(=O)COCCOCCNC(=O)CC[C@H](NC(=O)CC[C@H](NC(=O)CCCCCCCCCCCCCCCCC(=O)O)C(=O)O)C(=O)O)NC(=O)[C@H](CO)NC(=O)[C@H](CC(=O)O)NC(=O)[C@H](CC(C)C)NC(=O)[C@](C)(Cc1ccccc1)NC(=O)[C@H](CCCCN)NC(=O)[C@H](CO)NC(=O)[C@@H](NC(=O)[C@H](CC(=O)O)NC(=O)[C@H](CO)NC(=O)[C@@H](NC(=O)[C@](C)(Cc1ccccc1)NC(=O)[C@H](CO)NC(=O)CNC(=O)[C@H](Cc1c[nH]cn1)NC(=O)C(C)(C)NC(=O)[C@@H](N)Cc1c[nH]cn1)[C@@H](C)O)C(C)C)C(C)C)C(=O)N[C@@H](C)C(=O)N[C@@H](CC(N)=O)C(=O)N[C@H](C(N)=O)[C@@H](C)O
Take B5: in experiment [3], the “cAMP production, hGLP-1R EC50 (pM)” value is 152 pM.

B6: Peptide 151 (peptide)
peptide: H[Aib]QGTFTSDVSK[αMeF]LDSK([AEEA-AEEA-γGlu-C20 diacid])RAQDFVRWLL[Aib]TE-OH
modifications: N-terminus assumed
SMILES: CC(C)C[C@H](NC(=O)[C@H](Cc1c[nH]c2ccccc12)NC(=O)[C@H](CCCNC(=N)N)NC(=O)[C@@H](NC(=O)[C@H](Cc1ccccc1)NC(=O)[C@H](CC(=O)O)NC(=O)[C@H](CCC(N)=O)NC(=O)[C@H](C)NC(=O)[C@H](CCCNC(=N)N)NC(=O)[C@H](CCCCNC(=O)COCCOCCNC(=O)COCCOCCNC(=O)CC[C@H](NC(=O)CCCCCCCCCCCCCCCCCCC(=O)O)C(=O)O)NC(=O)[C@H](CO)NC(=O)[C@H](CC(=O)O)NC(=O)[C@H](CC(C)C)NC(=O)[C@](C)(Cc1ccccc1)NC(=O)[C@H](CCCCN)NC(=O)[C@H](CO)NC(=O)[C@@H](NC(=O)[C@H](CC(=O)O)NC(=O)[C@H](CO)NC(=O)[C@@H](NC(=O)[C@H](Cc1ccccc1)NC(=O)[C@@H](NC(=O)CNC(=O)[C@H](CCC(N)=O)NC(=O)C(C)(C)NC(=O)[C@@H](N)Cc1c[nH]cn1)[C@@H](C)O)[C@@H](C)O)C(C)C)C(C)C)C(=O)N[C@@H](CC(C)C)C(=O)NC(C)(C)C(=O)N[C@H](C(=O)N[C@@H](CCC(=O)O)C(=O)O)[C@@H](C)O
As for B6, the “cAMP production, hGLP-1R EC50 (pM)” value in experiment [3] is 111 pM. Also, the “cAMP production, hGluc-R EC50 (pM)” value in experiment [4] is 178 pM.

B7: Peptide 39 (peptide)
peptide: H[Aib]QGTFTSDVSK[αMeF]LDSK([AEEA-AEEA-γGlu-C18 diacid])RAQDFVRWLL[Aib]TE-OH
modifications: N-terminus assumed
SMILES: CC(C)C[C@H](NC(=O)[C@H](Cc1c[nH]c2ccccc12)NC(=O)[C@H](CCCNC(=N)N)NC(=O)[C@@H](NC(=O)[C@H](Cc1ccccc1)NC(=O)[C@H](CC(=O)O)NC(=O)[C@H](CCC(N)=O)NC(=O)[C@H](C)NC(=O)[C@H](CCCNC(=N)N)NC(=O)[C@H](CCCCNC(=O)COCCOCCNC(=O)COCCOCCNC(=O)CC[C@H](NC(=O)CCCCCCCCCCCCCCCCC(=O)O)C(=O)O)NC(=O)[C@H](CO)NC(=O)[C@H](CC(=O)O)NC(=O)[C@H](CC(C)C)NC(=O)[C@](C)(Cc1ccccc1)NC(=O)[C@H](CCCCN)NC(=O)[C@H](CO)NC(=O)[C@@H](NC(=O)[C@H](CC(=O)O)NC(=O)[C@H](CO)NC(=O)[C@@H](NC(=O)[C@H](Cc1ccccc1)NC(=O)[C@@H](NC(=O)CNC(=O)[C@H](CCC(N)=O)NC(=O)C(C)(C)NC(=O)[C@@H](N)Cc1c[nH]cn1)[C@@H](C)O)[C@@H](C)O)C(C)C)C(C)C)C(=O)N[C@@H](CC(C)C)C(=O)NC(C)(C)C(=O)N[C@H](C(=O)N[C@@H](CCC(=O)O)C(=O)O)[C@@H](C)O
Turning to B7, the figures for the “cAMP production EC50” value in experiment [1] and in experiment [2] were 0.0761 nM and 0.194 nM, respectively.

B8: Peptide 150 (peptide)
peptide: H[Aib]QGTFTSDVSK[αMeF]LDSK([AEEA-AEEA-γGlu-C18 diacid])RAQDFVQWLL[Aib]TE-OH
modifications: not fully specified
B8: the “cAMP production, hGLP-1R EC50 (pM)” value in experiment [3] worked out at 166 pM. Also, the “cAMP production, hGluc-R EC50 (pM)” value in experiment [4] came out at 355 pM.

These data come from patent US12630600B2 (MEDIMMUNE LIMITED, priority 2022, dated 2026).
